Experimental data published in US20090099029A1, “Methods and substrates for conducting assays” (Invitrogen Corporation, priority 2005, published 2009).

Test system: kinases of Table 6 on Myelin Basic Protein (MBP)
Experiment: Kinase assay using MBP substrate, ProQ Diamond stain (Table 6)
Type: biochemical
Conditions: kinase printed on MBP-coated slide; 20 uM ATP, 30° C.; ProQ Diamond Microarray Stain; graded Strong/Weak/Negative
Outline: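 Reactions ran at 30° C. with 20 uM ATP, 4 mM MgCl2 and 5% DMSO in HEPES pH 7.5, inhibitor added or omitted. Kinases had been arrayed onto slide-bound dephosphorylated bovine MBP; phospho-signal read after ProQ Diamond staining.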

| Molecule | MBP Kinase Activity |
| --- | --- |
| PRKCE (protein) MVVFNGLLKIKICEAVSLKPTAWSLRHAVGPRPQTFLLDPYIALNVDDSRIGQTATKQKTNSPAWHDEFVTDVCNGRKIELAVFHDAPIGYDDFVANCTIQFEELLQNGSRHFEDWIDLEPEGRVYVIIDLSGSSGEAPKDNEERVFRERMRPRKRQGAVRRRVHQVNGHKFMATYLRQPTYCSHCRDFIWGVIGKQGYQCQVCTCVVHKRCHELIITKCAGLKKQETPDQVGSQRFSVNMPHKFGIHNYKVPTFCDHCGSLLWGLLRQGLQCKVCKMNVHRRCETNVAPNCGVDARGIAKVLADLGVTPDKITNSGQRRKKLIAGAESPQPASGSSPSEEDRSKSAPTSPCDQEIKELENNIRKALSFDNRGEEHRAASSPDGQLMSPGENGEVRQGQAKRLGLDEFNFIKVLGKGSFGKVMLAELKGKDEVYAVKVLKKDVILQDDDVDCTMTEKRILALARKHPYLTQLYCCFQTKDRLFFVMEYVNGGDLMFQIQRSRKFDEPRSRFYAAEVTSALMFLHQHGVIYRDLKLDNILLDAEGHCKLADFGMCKEGILNGVTTTTFCGTPDYIAPEILQELEYGPSVDWWALGVLMYEMMAGQPPFEADNEDDLFESILHDDVLYPVWLSKEAVSILKAFMTKNPHKRLGCVASQNGEDAIKQHPFFKEIDWVLLEQKKIKPPFKPRIKTKRDVNNFDQDFTREEPVLTLVDEAIVKQINQEEFKGFSYFGEDLMP | Strong |
| PRKD1(PKD) (protein, left off: a dimerising Fc or GST) MSAPPVLRPPSPLLPVAAAAAAAAAALVPGSGPGPAPFLAPVAAPVGGISFHLQIGLSREPVLLLQDSSGDYSLAHVREMACSIVDQKFPECGFYGMYDKILLFRHDPTSENILQLVKAASDIQEGDLIEVVLSASATFEDFQIRPHALFVHSYRAPAFCDHCGEMLWGLVRQGLKCEGCGLNYHKRCAFKIPNNCSGVRRRRLSNVSLTGVSTIRTSSAELSTSAPDEPLLQKSPSESFIGREKRSNSQSYIGRPIHLDKILMSKVKVPHTFVIHSYTRPTVCQYCKKLLKGLFRQGLQCKDCRFNCHKRCAPKVPNNCLGEVTINGDLLSPGAESDVVMEEGSDDNDSERNSGLMDDMEEAMVQDAEMAMAECQNDSGEMQDPDPDHEDANRTISPSTSNNIPLMRVVQSVKHTKRKSSTVMKEGWMVHYTSKDTLRKRHYWRLDSKCITLFQNDTGSRYYKEIPLSEILSLEPVKTSALIPNGANPHCFEITTANVVYYVGENVVNPSSPSPNNSVLTSGVGADVARMWEIAIQHALMPVIPKGSSVGTGTNLHRDISVSISVSNCQIQENVDISTVYQIFPDEVLGSGQFGIVYGGKHRKTGRDVAIKIIDKLRFPTKQESQLRNEVAILQNLHHPGVVNLECMFETPERVFVVMEKLHGDMLEMILSSEKGRLPEHITKFLITQILVALRHLHFKNIVHCDLKPENVLLASADPFPQVKLCDFGFARIIGEKSFRRSVVGTPAYLAPEVLRNKGYNRSLDMWSVGVIIYVSLSGTFPFNEDEDIHDQIQNAAFMYPPNPWKEISHEAIDLINNLLQVKMRKRYSVDKTLSHPWLQDYQTWLDLRELECKIGERYITHESDDLRWEKYAGEQGLQYPTHLINPSASHSDTPETEETEMKALGERVSIL | Weak |
| PRKCZ (protein) MPSRTGPKMEGSGGRVRLKAHYGGDIFITSVDAATTFEELCEEVRDMCRLHQQHPLTLKWVDSEGDPCTVSSQMELEEAFRLARQCRDEGLIIHVFPSTPEQPGLPCPGEDKSIYRRGARRWRKLYRANGHLFQAKRFNRRAYCGQCSERIWGLARQGYRCINCKLLVHKRCHGLVPLTCRKHMDSVMPSQEPPVDDKNEDADLPSEETDGIAYISSSRKHDSIKDDSEDLKPVIDGMDGIKISQGLGLQDFDLIRVIGRGSYAKVLLVRLKKNDQIYAMKVVKKELVHDDEDIDWVQTEKHVFEQASSNPFLVGLHSCFQTTSRLFLVIEYVNGGDLMFHMQRQRKLPEEHARFYAAEICIALNFLHERGIIYRDLKLDNVLLDADGHIKLTDYGMCKEGLGPGDTTSTFCGTPNYIAPEILRGEEYGFSVDWWALGVLMFEMMAGRSPFDIITDNPDMNTEDYLFQVILEKPIRIPRFLSVKASHVLKGFLNKDPKERLGCRPQTGFSDIKSHAFFRSIDWDLLEKKQALPPFQPQITDDYGLDNFDTQFTSEPVQLTPDDEDAIKRIDQSEFEGFEYINPLLLSTEESV | Strong |
| PLK3 (protein, left off: a dimerising Fc or GST) SGRTYLKGRLLGKGGFARCYEATDTETGSAYAVKVIPQSRVAKPHQREKILNEIELHRDLQHRHIVRFSHHFEDADNIYIFLELCSRKSLAHIWKARHTLLEPEVRYYLRQILSGLKYLHQRGILHRDLKLGNFFITENMELKVGDFGLAARLEPPEQRKKTICGTPNYVAPEVLLRQGHGPEADVWSLGCVMYTLLCGSPPFETADLKETYRCIKQVHYTLPASLSLPARQLLAAILRASPRDRPSIDQILRHDFFTKGYTPDRLPISSCVTVPDLTPPNPA | Negative |
| PHKG2 (protein, left off: small tags and cut ends) MTLDVGPEDELPDWAAAKEFYQKYDPKDVIGRGVSSVVRRCVHRATGHEFAVKIMEVTAERLSPEQLEEVREATRRETHILRQVAGHPHIITLIDSYESSSFMFLVFDLMRKGELFDYLTEKVALSEKETRSIMRSLLEAVSFLHANNIVHRDLKPENILLDDNMQIRLSDFGFSCHLEPGEKLRELCGTPGYLAPEILKCSMDETHPGYGKEVDLWACGVILFTLLAGSPPFWHRRQILMLRMIMEGQYQFSSPEWDDRSSTVKDLISRLLQVDPEARLTAEQALQHPFFERCEGSQPWNLTPRQRFRVAVWTVLAAGRVALSTHRVRPLTKNALLRDPYALRSVRHLIDNCAFRLYGHWVKKGEQQNRAALFQHRPPGPFPIMGPEEEGDSAAITEDEAVLVLG | Negative |
| EPHA8 (protein, left off: a dimerising Fc or GST) KKRHCGYSKAFQDSDEEKMHYQNGQAPPPVFLPLHHPPGKLPEPQFYAEPHTYEEPGRAGRSFTREIEASRIHIEKIIGSGDSGEVCYGRLRVPGQRDVPVAIKALKAGYTERQRRDFLSEASIMGQFDHPNIIRLEGVVTRGRLAMIVTEYMENGSLDTFLRTHDGQFTIMQLVGMLRGVGAGMRYLSDLGYVHRDLAARNVLVDSNLVCKVSDFGLSRVLEDDPDAAYTTTGGKIPIRWTAPEAIAFRTFSSASDVWSFGVVMWEVLAYGERPYWNMTNRDVISSVEEGYRLPAPMGCPHALHQLMLDCWHKDRAQRPRFSQIVSVLDALIRSPESLRATATVSRCPPPAFVRSCFDLRGGSGGGGGLTVGDWLDSIRMGRYRDHFAAGGYSSLGMVLRMNAQDVRALGITLMGHQKKILGSIQTMRAQLTSTQGPRRHL | Weak |
| EPHB2 (protein, left off: a dimerising Fc or GST) CNRRGFERADSEYTDKLQHYTSGHMTPGMKIYIDPFTYEDPNEAVREFAKEIDISCVKIEQVIGAGEFGEVCSGHLKLPGKREIFVAIKTLKSGYTEKQRRDFLSEASIMGQFDHPNVIHLEGVVTKSTPVMIITEFMENGSLDSFLRQNDGQFTVIQLVGMLRGIAAGMKYLADMNYVHRDLAARNILVNSNLVCKVSDFGLSRFLEDDTSDPTYTSALGGKIPIRWTAPEAIQYRKFTSASDVWSYGIVMWEVMSYGERPYWDMTNQDVINAIEQDYRLPPPMDCPSALHQLMLDCWQKDRNHRPKFGQIVNTLDKMIRNPNSLKAMAPLSSGINLPLLDRTIPDYTSFNTVDEWLEAIKMGQYKESFANAGFTSFDVVSQMMMEDILRVGVTLAGHQKKILNSIQVMRAQMNQIQSVEV | Strong |
| EPHB1 (protein, left off: a dimerising Fc or GST) SRKRAYSKEAVYSDKLQHYSTGRGSPGMKIYIDPFTYEDPNEAVREFAKEIDVSFVKIEEVIGAGEFGEVYKGRLKLPGKREIYVAIKTLKAGYSEKQRRDFLSEASIMGQFDHPNIIRLEGVVTKSRPVMIITEFMENGALDSFLRQNDGQFTVIQLVGMLRGIAAGMKYLAEMNYVHRDLAARNILVNSNLVCKVSDFGLSRYLQDDTSDPTYTSSLGGKIPVRWTAPEAIAYRKFTSASDVWSYGIVMWEVMSFGERPYWDMSNQDVINAIEQDYRLPPPMDCPAALHQLMLDCWQKDRNSRPRFAEIVNTLDKMIRNPASLKTVATITAVPSQPLLDRSIPDFTAFTTVDDWLSAIKMVQYRDSFLTAGFTSLQLVTQMTSEDLLRIGITLAGHQKKILNSIHSMRVQISQSPTAMA | Strong |
| PAK6 (protein, left off: small tags and cut ends) MFRKKKKKRPEISAPQNFQHRVHTSFDPKEGKFVGLPPQWQNILDTLRRPKPVVDPSRITRVQLQPMKTVVRGSAMPVDGYISGLLNDIQKLSVISSNTLRGRSPTSRRRAQSLGLLGDEHWATDPDMYLQSPQSERTDPHGLYLSCNGGTPAGHKQMPWPEPQSPRVLPNGLAAKAQSLGPAEFQGASQRCLQLGACLQSSPPGASPPTGTNRHGMKAAKHGSEEARPQSCLVGSATGRPGGEGSPSPKTRESSLKRRLFRSMFLSTAATAPPSSSKPGPPPQSKPNSSFRPPQKDNPPSLVAKAQSLPSDQPVGTFSPLTTSDTSSPQKSLRTAPATGQLPGRSSPAGSPRTWHAQISTSNLYLPQDPTVAKGALAGEDTGVVTHEQFKAALRMVVDQGDPRLLLDSYVKIGEGSTGIVCLAREKHSGRQVAVKMMDLRKQQRRELLFNEVVIMRDYQHFNVVEMYKSYLVGEELWVLMEFLQGGALTDIVSQVRLNEEQIATVCEAVLQALAYLHAQGVIHRDIKSDSILLTLDGRVKLSDFGFCAQISKDVPKRKSLVGTPYWMAPEVISRSLYATEVDIWSLGIMVIEMVDGEPPYFSDSPVQAMKRLRDSPPPKLKNSHKVSPVLRDFLERMLVRDPQERATAQELLDHPFLLQTGLPECLVPLIQLYRKQTSTC | Negative |
